Here are results for four molecules from PMC5589798, “Alpha subunit-dependent glycine receptor clustering and regulation of synaptic receptor numbers” (Scientific Reports, 2017).

For data set [1], the target named is endogenous α subunits of spinal cord neurons. The data set is described as follows: PALM-based single molecule counting; fixed lentivirus-infected spinal cord neurons; bursts of Dendra2 detections counted in 120 nm clusters in sparse areas of the extrasynaptic plasma membrane, binomial fit.
Data set [2] concerns the molecule itself. The data set is described as follows: PALM-based single molecule counting; fixed COS-7 cells expressing mEos2-gephyrin; cluster diameter 150 nm, burst length < 60 s, binomial fit.
Data set [3] has as its target T1, endogenous extrasynaptic GlyRs (labelled by QDs on endogenous GlyRα1) (mouse (endogenous in spinal cord …, UniProt Q64018 29-457; P48168 23-496).
T1 construct: endogenous glycine receptor beta subunit of mouse spinal cord neurons; the discussion calls extrasynaptic GlyRs α3:β2 heteromers; Only the α1 subunit was labelled; also called endogenous GlyRs; receptor complexes; source: endogenous, mouse spinal cord neurons, fixed cells; copies: 3 + 2
The data set is described as follows: PALM-based single molecule counting at QD-labelled receptors; fixed mouse spinal cord neurons; endogenous GlyRα1 labelled with mAb2b and Fab'-QD605, mEos2-gephyrin bursts counted at the QD sites in the extrasynaptic membrane. Conditions: partners not purified.

In data set [4] the target is T2, untagged GlyRβ (UniProt P48167 23-497).
T2 construct: glycine receptor beta subunit, untagged; also called untagged β subunits; non-fluorescent subunits; source: COS-7, transfected, in cells
The data set is described as follows: PALM-based single molecule counting; fixed transfected COS-7 cells; bursts of Dendra2 detections counted in 120 nm clusters, binomial fit; Dendra2-GlyR subunits alone or with untagged subunits. The settings on record: partners not purified.

Data set [5] concerns the target T3, endogenous GlyRβ subunits of spinal cord neurons ( (endogenous in rat or mouse …, UniProt P20781 23-496)).
T3 construct: endogenous glycine receptor beta subunit of cultured spinal cord neurons; also called endogenous counterparts; source: endogenous, cultured spinal cord neurons, fixed cells
The data set is described as follows: PALM-based single molecule counting; fixed lentivirus-infected spinal cord neurons; bursts of Dendra2 detections counted in 120 nm clusters in sparse areas of the extrasynaptic plasma membrane, binomial fit. Conditions: partners not purified.

T3 sequence (P20781 23-496): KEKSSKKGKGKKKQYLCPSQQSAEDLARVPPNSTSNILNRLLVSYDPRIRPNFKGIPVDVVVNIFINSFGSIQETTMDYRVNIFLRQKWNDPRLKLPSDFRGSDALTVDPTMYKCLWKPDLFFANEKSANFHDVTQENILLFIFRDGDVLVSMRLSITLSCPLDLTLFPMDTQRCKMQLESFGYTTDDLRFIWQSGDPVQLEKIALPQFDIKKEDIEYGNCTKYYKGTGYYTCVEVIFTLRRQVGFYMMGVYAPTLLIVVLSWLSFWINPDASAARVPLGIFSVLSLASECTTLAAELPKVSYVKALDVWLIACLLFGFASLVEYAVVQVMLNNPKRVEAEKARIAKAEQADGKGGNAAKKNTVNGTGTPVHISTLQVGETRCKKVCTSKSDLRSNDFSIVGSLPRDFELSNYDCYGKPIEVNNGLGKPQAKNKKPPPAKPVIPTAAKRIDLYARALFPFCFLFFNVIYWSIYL
T2 sequence (P48167 23-497): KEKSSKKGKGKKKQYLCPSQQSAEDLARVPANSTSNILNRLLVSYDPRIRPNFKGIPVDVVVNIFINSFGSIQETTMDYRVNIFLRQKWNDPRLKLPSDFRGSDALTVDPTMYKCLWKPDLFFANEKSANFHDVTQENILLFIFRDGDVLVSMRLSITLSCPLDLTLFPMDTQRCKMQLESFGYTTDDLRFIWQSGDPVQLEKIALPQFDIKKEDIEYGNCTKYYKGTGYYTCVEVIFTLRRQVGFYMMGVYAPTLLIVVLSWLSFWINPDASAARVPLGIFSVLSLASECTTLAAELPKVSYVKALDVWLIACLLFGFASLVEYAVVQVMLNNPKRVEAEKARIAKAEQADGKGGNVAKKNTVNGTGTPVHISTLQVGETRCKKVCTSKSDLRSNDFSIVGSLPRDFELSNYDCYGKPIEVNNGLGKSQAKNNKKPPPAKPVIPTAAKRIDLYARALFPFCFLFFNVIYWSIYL
T1 sequence (P48168 23-496, one chain of several): as the sequence (P20781 23-496) above, with A23P counted along it

In general, stoichiometry N refers to a count of units in the complex or per binding partner. In the case of “Dendra2-GlyRβ (FU-SP-myc-Dendra2-GlyRβ) (from UniProt P48167-1 23-497) (receptor)”, in data set [1], the stoichiometry N is 1.5 α:β (3:2).

B1: mEos2-gephyrin (FU-mEos2-gephyrin) (natural protein, UniProt Q03555 1-768, looked up)
chain: MATEGMILTNHDHQIRVGVLTVSDSCFRNLAEDRSGINLKDLVQDPSLLGGTISAYKIVPDEIEEIKETLIDWCDEKELNLILTTGGTGFAPRDVTPEKFPTFPFCGLQKGATKEVIEREAPGMALAMLMGSLNVTPLGMLSRPVCGIRGKTLIINLPGSKKGSQECFQFILPALPHAIDLLRDAIVKVKEVHDELEDLPSPPPPLSPPPTTSPHKQTEDKGVQCEEEEEEKKDSGVASTEDSSSSHITAAALAAKIPDSIISRGVQVLPRDTASLSTTPSESPRAQATSRLSTASCPTPKQIRRPDESKGVASRVGSLKVQSRCSSKENILRASHSAVDITKVARRHRMSPFPLTSMDKAFITVLEMTPVLGTEIINYRDGMGRVLAQDVYAKDNLPPFPASVKDGYAVRAADGPGDRFIIGESQAGEQPTQTVMPGQVMRVTTGAPIPCGADAVVQVEDTELIRESDDGTEELEVRILVQARPGQDIRPIGHDIKRGECVLAKGTHMGPSEIGLLATVGVTEVEVNKFPVVAVMSTGNELLNPEDDLLPGKIRDSNRSTLLATIQEHGYPTINLGIVGDNPDDLLNALNEGISRADVIITSGGVSMGEKDYLKQVLDIDLHAQIHFGRVFMKPGLPTTFATLDIDGVRKIIFALPGNPVSAVVTCNLFVVPALRKMQGILDPRPTIIKARLSCDVKLDPRPEYHRCILTWHHQEPLPWAQSTGNQMSSRLMSMRSANGLLMLPPKTEQYVELHKGEVVDVMVIGRL
notes: gephyrin; neither species nor isoform is stated; In neurons, endogenous gephyrin is also present and dilutes the detected mEos2-gephyrin; source: COS-7, transfected, in cells; spinal cord neurons, lentivirus infected, in cells
As to B1, the figures for the “stoichiometry N” value in data set [2] and in data set [3] were 3 and 1 gephyrin trimer per receptor complex, respectively.

B2: Dendra2-GlyRα3 (FU-SP-myc-Dendra2-GlyRα3L) (receptor, human, UniProt O75311-1 34-464, looked up)
chain: ARSRSAPMSPSDFLDKLMGRTSGYDARIRPNFKGPPVNVTCNIFINSFGSIAETTMDYRVNIFLRQKWNDPRLAYSEYPDDSLDLDPSMLDSIWKPDLFFANEKGANFHEVTTDNKLLRIFKNGNVLYSIRLTLTLSCPMDLKNFPMDVQTCIMQLESFGYTMNDLIFEWQDEAPVQVAEGLTLPQFLLKEEKDLRYCTKHYNTGKFTCIEVRFHLERQMGYYLIQMYIPSLLIVILSWVSFWINMDAAPARVALGITTVLTMTTQSSGSRASLPKVSYVKAIDIWMAVCLLFVFSALLEYAAVNFVSRQHKELLRFRRKRKNKTEAFALEKFYRFSDMDDEVRESRFSFTAYGMGPCLQAKDGMTPKGPNHPVQVMPKSPDEMRKVFIDRAKKIDTISRACFPLAFLIFNIFYWVIYKILRHEDIHQQQD
notes: human glycine receptor alpha-3 subunit, long isoform (α3L); Five copies hold for the homomeric receptor (expressed alone in COS-7); also called homomeric Dendra2-GlyRα3; source: COS-7, transfected (FuGENE 6), in cells; spinal cord neurons, lentivirus infected, in cells; not shown: myc, N-terminal, kept; Dendra2, N-terminal, kept
B2: the “stoichiometry N” value in data set [4] is 3 α3 subunits per complex; in data set [5], 1.5 α:β (3:2).

B3: Dendra2-GlyRα1 (FU-SP-myc-Dendra2-GlyRα1) (receptor, rat, UniProt P07727-1 29-457, looked up)
chain: ARSAPKPMSPSDFLDKLMGRTSGYDARIRPNFKGPPVNVSCNIFINSFGSIAETTMDYRVNIFLRQQWNDPRLAYNEYPDDSLDLDPSMLDSIWKPDLFFANEKGAHFHEITTDNKLLRISRNGNVLYSIRITLTLACPMDLKNFPMDVQTCIMQLESFGYTMNDLIFEWQEQGAVQVADGLTLPQFILKEEKDLRYCTKHYNTGKFTCIEARFHLERQMGYYLIQMYIPSLLIVILSWISFWINMDAAPARVGLGITTVLTMTTQSSGSRASLPKVSYVKAIDIWMAVCLLFVFSALLEYAAVNFVSRQHKELLRFRRKRRHHKSPMLNLFQDDEGGEGRFNFSAYGMGPACLQAKDGISVKGANNNNTTNPAPAPSKSPEEMRKLFIQRAKKIDKISRIGFPMAFLIFNMFYWIIYKIVRREDVHNK
notes: rat glycine receptor alpha-1 subunit, isoform a; Five copies hold for the homomeric receptor (expressed alone in COS-7); also called homomeric Dendra2-GlyRα1; source: COS-7, transfected (FuGENE 6), in cells; spinal cord neurons, lentivirus infected, in cells; not shown: myc, N-terminal, kept; Dendra2, N-terminal, kept
On to B3, for which the “stoichiometry N” value in data set [5] was 1.5 α:β (3:2).
